Laboratory results reported in article PMC12101283, “Validation and Optimization of PURE Ribosome Display for Screening Synthetic Nanobody Libraries” (Antibodies, 2025).

B1: F4_B6 (VHH)
VHH: QVQLVESGGGLVQAGGSLRLSCAASGVDMHNFEMGWYRQAPGKEREFVAAIDDVQPLTYYADSVKGRFTISRDNAKNTVYLQMNSLKPEDTAVYYCAAVKGDFWSESNYWGQGTQVTVSS
notes: source: E. coli BL21; supernatant of lysed cells (ELISA; captured on Ni-NTA for the pull-down); purified (Ni-NTA, SEC) for SEC and ITC
B2: F4_C9 (VHH)
VHH: QVQLVESGGGLVQAGGSLRLSCAASGPPFSFVFMGWYRQAPGKEREFVAAIFDFTDETYYADSVKGRFTISRDNAKNTVYLHMNSLKPEDTAVYYCAAARGLNYWNNVYWGQGTQVTVSS
notes: source: E. coli BL21; supernatant of lysed cells (ELISA; captured on Ni-NTA for the pull-down)

Tests used:
[1] = target: T1, human fatty acid binding protein 4 (Homo sapiens, UniProt P15090); test: ITC; MicroCal PEAQ ITC, 25 °C, PBS, one binding site model; 50 µM F4_B6 in cell with 550 µM hFABP4 in syringe; settings: both partners purified
T1 construct: The methods describe only the plasmid His-SUMO-hFABP4-(GGGGS)4-SBP; also called hFABP4; FABP4; source: E. coli BL21 (DE3), purified (Ni-NTA, SEC); not shown: His, N-terminal, cleaved; SUMO, N-terminal, cleaved

[2] = target: T1, human fatty acid binding protein 4; test: pull-down; His-tagged nanobody captured from E. coli supernatant on Ni-NTA agarose and washed; 100 µL target protein solution (approximately 0.2 mg/mL) added; washes with PBS (10 mM imidazole in the 3rd); elution with 200 mM imidazole; SDS-PAGE; settings: both partners purified

T1 sequence (P15090 whole entry): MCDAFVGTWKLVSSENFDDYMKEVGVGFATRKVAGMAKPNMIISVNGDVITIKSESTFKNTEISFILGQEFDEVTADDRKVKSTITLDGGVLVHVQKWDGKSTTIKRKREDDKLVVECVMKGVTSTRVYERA

| Binder | Kd [1] [µM] | binding result [2] |
| --- | --- | --- |
| B1 | ~0.295 | – |
| B2 | – | binds |
